Patent US20140134169A1, “Methods of Treating Ovarian Cancer with Dll4 Antagonists” (Regeneron Pharmaceuticals, Inc., priority 2012, published 2014)

What was measured:
[1] = tested on: Hey-1 transcript (Dll4-notch signaling pathway); assay: Hey-1 transcript in Phase I patient samples (microarray); format: in vivo, human; conditions: all samples, 0.25 and 0.5 mg/kg
Procedure: The pharmacodynamic effect of REGN421 on the Dll4-notch signaling pathway has been analyzed using microarray technology on the patient serum samples collected prior to as well as 24 hours following REGN421 administration.

[2] = tested on: human HCT116 tumor cells (CRC); assay: Growth of human HCT116 tumors in humanized Dll4 SCID mice (5-FU study); format: in vivo; conditions: REGN421 2 mg/kg sc (6 mg/kg total)
Procedure: Each mouse was implanted subcutaneously (sc) with 5×10^6 human HCT116 tumor cells (CRC). […] The mice were then treated with hFc, REGN421, 5-FU or combination of REGN421 and 5-FU. A total of 30 mice were divided into 6 groups (n=5 per cohort). The first group was treated sc with hFc at 2 mg/kg; the second group was treated sc with REGN421 at 2 mg/kg; the third and fourth groups were treated ip with 5-FU at 15 and 25 mg/kg, respectively; the fifth group was treated sc with REGN421 at 2 mg/kg and ip with 5-FU at 15 mg/kg; and the sixth group was treated sc with REGN421 at 2 mg/kg and ip with 5-FU at 25 mg/kg. REGN421 was administered every 3-4 days starting on day 22 and mice received three doses total. 5-FU was administered every 3-4 days starting on day 22 and mice received three doses total.
To assess the effects of REGN421 and 5-FU as single agents or in combination, the changes in tumor size (volume) were measured, beginning three days before the initial REGN421 treatment, and then on the day of each agent treatment (days 22, 26, 29) and thereafter every 3-4 days until tumors reach ˜600 mm^3 in size. In vivo tumor size is calculated using the formula (length×width^2)/2 (FIG. 3 and Table 5).

[3] = tested on: human VM-Cub1 tumor cells (bladder carcinoma cells); assay: Growth of human VM-Cub1 tumors implanted in humanized Dll4 SCID mice; format: in vivo; conditions: for TGI(%): day 32; for TGD: to 600 mm3
Procedure: The humanized Dll4 SCID mouse was made by replacing the entire extracellular domain of the mouse Dll4 gene with the corresponding extracellular region of the human Dll4 gene (7 kb) in embryonic stem (ES) cells. Homozygous hDll4 mice were generated and bred into SCID background.
A total of 45 mice were divided into nine groups (n=5 per cohort). The first group was treated subcutaneously (sc) with hFc at 2 mg/kg; the second and third groups were treated sc with REGN421 at 0.5 and 2 mg/kg, respectively; the fourth and fifth groups were treated intraperitoneally (ip) with cisplatin at 0.5 and 2 mg/kg, respectively; the sixth group was treated sc with REGN421 at 0.5 mg/kg and ip with cisplatin at 0.5 mg/kg; the seventh group was treated sc with REGN421 at 0.5 mg/kg and ip with cisplatin at 2 mg/kg; the eighth group was treated sc with REGN421 at 2 mg/kg and ip with cisplatin at 0.5 mg/kg; and the ninth group was treated sc with REGN421 at 2 mg/kg and ip with cisplatin at 2 mg/kg. REGN421 was administered every 3-4 days starting on day 14 and mice received three doses total. Cisplatin was administered every 24 hours starting on day 14; mice received four doses total.
To assess the effects of REGN421 and cisplatin as single agents or in combination treatments, the changes in tumor size were recorded. Tumor growth was measured three days before the initial REGN421 treatment, on the day of each REGN421 treatment (days 14, 17 and 21) and thereafter every 3-4 days until tumors reached ˜600 mm3 in size. In vivo tumor size was calculated using the formula (length×width2)/2 (FIG. 1 and Table 1).
Tumor Growth Inhibition, TGI, was determined by calculating the difference in tumor size for treated (T) versus vehicle control (C) tumor at the day the control cohort was euthanized (i.e., at day 32); TGI=[1−(Tfinal−Tinitial)/(Cfinal−Cinitial)]×100.
Tumor growth delay, TGD, was assessed as the difference in days between treated (T) versus control (C) tumors when each cohort reached a specified tumor size. The predetermined tumor size for this experiment was 600 mm^3.

[4] = Phase I pharmacokinetics, single 30-min IV infusion, ELISA; format: in vivo, human
Procedure: REGN421 is currently being studied in a first-in-human trial. The primary objective of the study is to determine the recommended dose of REGN421 for future efficacy trials. The secondary objectives are to characterize the drug safety profile, its pharmacokinetics, immunogenicity, and pharmacodynamics, as well as preliminary evidence of efficacy. In this study, anti-hDll4 antibody REGN421 is administered intravenously every 3 weeks to patients whose cancer has progressed on conventional therapy. The study design follows standard methodology for dose escalation and definition of dose-limiting toxicity. To date, 7 patients have been treated at 0.25 mg/kg/dose every three weeks, and 6 patients have been treated at 0.50 mg/kg/dose every three weeks. For the pharmacokinetic study, blood samples were taken at pre-dose, 0 hour, and post-dose 1, 2, 4 and 8 hours on Day 1, followed by Days 2, 3, 4, 8 and 15 of Cycle 1; and pre-dose, 0 hour on Day 1 of Cycles 2, and post-treatment follow-up on Days 15, 30 and 60. Plasma/serum levels of REGN421 in the samples are measured by ELISA with an upper limit of quantification of 2.5 μg/mL and a lower limit of quantification of 0.039 μg/mL in the undiluted serum sample. The study is ongoing with the intent to administer higher doses, defined in the protocol as 1, 2, 4, and 7 mg/kg/dose.
The currently available data showing plasma pharmacokinetic parameters following single 30-min. Cmax: Maximum serum concentration of the drug; Tlast: Time to the last quantifiable concentration of the drug; Clast: Last quantifiable concentration of the drug; AUClast: Area under curve up to the last concentration of the drug; AUC: Total area under the curve (i.e., drug exposure); t1/2Z: Terminal half life; Vss: Volume of distribution at steady state; CL: Drug clearance rate. Values are: mean, (CV %), and [range] (a: median [range]).

B1: REGN421 (antibody, V domains shown)
VH: QVQLVESGGGVVQPGRSLRLSCAASGFTFSSYGMHWVRQAPGKGLEWVSFLWYDGTNKNYVESVKGRFTISRDNSKNMLYLEMNSLRAEDTAVYYCARDHDFRSGYEGWFDPWGQGTLVTVSS
VL: EIVLTQSPATLSLSPGERATLSCRASQSVSSYLAWYQQKPGQAPRLLIYDASNRATGIPARFSGSGSGTDFTLTISSLEPEDFAVYYCQHRSNWPPTFGGGTKVEIK
[1]
  expression of the Hey-1 gene compared to pre-treatment samples: reduced
[2]
  TGD: 6 days
  TGI(%) at Day 39: 36.3%
[3]; REGN421 0.5 mg/kg/dose sc x3
  Euthanized: 32 days
  TGI(%): −13.7%
  TGD: 0 days
[3]; REGN421 2 mg/kg/dose sc x3
  Euthanized: 44 days
  TGI(%): 83.1%
  TGD: 12 days
[3]; REGN421 alone, dose not stated
  reduction in tumor growth: 54%
[4]; 0.25 mg/kg IV, n = 7, mean
  AUC: 489 µg·h/mL
  AUClast: 452 µg·h/mL
  CL: 0.0473 L/h
  Cmax: 6270 ng/mL
  T1/2Z: 47.1 h
  Vss: 2.85 L
[4]; 0.25 mg/kg IV, n = 7, median
  Tlast: 170 h
[4]; 0.5 mg/kg IV, n = 2, mean
  AUC: 963 µg·h/mL
  AUClast: 759 µg·h/mL
  CL: 0.0355 L/h
  Clast: 2240 ng/mL
  Cmax: 9880 ng/mL
  T1/2Z: 92.3 h
  Vss: 3.64 L
[4]; 0.5 mg/kg IV, n = 2, median
  Tlast: 203 h
